T1: NKG2D (human, UniProt P26718 1-216)
T1 construct: whole, on cells; also called NKGD
T1 sequence (looked up): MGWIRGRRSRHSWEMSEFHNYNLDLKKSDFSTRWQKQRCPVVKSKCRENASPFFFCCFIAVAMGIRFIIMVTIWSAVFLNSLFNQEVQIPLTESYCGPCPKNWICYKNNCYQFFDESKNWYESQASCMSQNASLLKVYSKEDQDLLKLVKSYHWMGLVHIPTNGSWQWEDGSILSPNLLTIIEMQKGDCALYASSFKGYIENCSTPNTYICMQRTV

B1: DVD1053 (bispecific antibody)
VH: QVQLQQPGAELVKPGASVKMSCKASGYTFTSYNMHWVKQTPGRGLEWIGAIYPGNGDTSYNQKFKGKATLTADKSSSTAYMQLSSLTSEDSAVYYCARSTYYGGDWYFNVWGAGTTVTVSAASTKGPSVFPLAPQVQLVESGGGLVKPGGSLRLSCAASGFTFSSYGMHWVRQAPGKGLEWVAFIRYDGSNKYYADSVKGRFTISRDNSKNTLYLQMNSLRAEDTAVYYCAKDRGLGDGTYFDYWGQGTTVTVSS
VL: QIVLSQSPAILSPSPGEKVTMTCRASSSVSYIHWFQQKPGSSPKPWIYATSNLASGVPVRFSGSGSGTSYSLTISRVEAEDAATYYCQQWTSNPPTFGGGTKLEIKRTVAAPSVFIFPPQSALTQPASVSGSPGQSITISCSGSSSNIGNNAVNWYQQLPGKAPKLLIYYDDLLPSGVSDRFSGSKSGTSAFLAISGLQSEDEADYYCAAWDDSLNGPVFGGGTKLTVLG
notes: DVD-Ig; dual variable domains only; Outer AB001, inner AB121; also called CD-20 / NKG2D DVD-Ig; DVD1053H + DVD1053L
B2: DVD1054 (bispecific antibody)
VH: QVQLVESGGGLVKPGGSLRLSCAASGFTFSSYGMHWVRQAPGKGLEWVAFIRYDGSNKYYADSVKGRFTISRDNSKNTLYLQMNSLRAEDTAVYYCAKDRGLGDGTYFDYWGQGTTVTVSSASTKGPSVFPLAPQVQLQQSGAELVRPGSSVKISCKASGYAFSSYWMNWVKQRPGQGLEWIGQIWPGDGDTNYNGKFKGKATLTADESSSTAYMQLSSLASEDSAVYFCARRETTTVGRYYYAMDYWGQGTSVTVSS
VL: QSALTQPASVSGSPGQSITISCSGSSSNIGNNAVNWYQQLPGKAPKLLIYYDDLLPSGVSDRFSGSKSGTSAFLAISGLQSEDEADYYCAAWDDSLNGPVFGGGTKLTVLGQPKAAPSVTLFPPDILLTQTPASLAVSLGQRATISCKASQSVDYDGDSYLNWYQQIPGQPPKLLIYDASNLVSGIPPRFSGSGSGTDFTLNIHPVEKVDAATYHCQQSTEDPWTFGGGTKLEIKR
notes: DVD-Ig; dual variable domains only; Outer AB121, inner AB006; also called DVD1054H + DVD1054L
B3: DVD1214 (bispecific antibody)
VH: QVQLVESGGGLVKPGGSLRLSCAASGFTFSSYGMHWVRQAPGKGLEWVAFIRYDGSNKYYADSVKGRFTISRDNSKNTLYLQMNSLRAEDTAVYYCAKDRGLGDGTYFDYWGQGTTVTVSSASTKGPSVFPLAPQVQLQESGPGLVKPSQTLSLTCTVSGYSISSDFAWNWIRQPPGKGLEWMGYISYSGNTRYQPSLKSRITISRDTSKNQFFLKLNSVTAADTATYYCVTAGRGFPYWGQGTLVTVSS
VL: QSALTQPASVSGSPGQSITISCSGSSSNIGNNAVNWYQQLPGKAPKLLIYYDDLLPSGVSDRFSGSKSGTSAFLAISGLQSEDEADYYCAAWDDSLNGPVFGGGTKLTVLGQPKAAPSVTLFPPDIQMTQSPSSMSVSVGDRVTITCHSSQDINSNIGWLQQKPGKSFKGLIYHGTNLDDGVPSRFSGSGSGTDYTLTISSLQPEDFATYYCVQYAQFPWTFGGGTKLEIKR
notes: DVD-Ig; dual variable domains only; Outer AB121, inner AB064; also called DVD1214H + DVD1214L
B4: DVD1215 (bispecific antibody)
VH: QVQLQESGPGLVKPSQTLSLTCTVSGYSISSDFAWNWIRQPPGKGLEWMGYISYSGNTRYQPSLKSRITISRDTSKNQFFLKLNSVTAADTATYYCVTAGRGFPYWGQGTLVTVSSASTKGPSVFPLAPQVQLVESGGGLVKPGGSLRLSCAASGFTFSSYGMHWVRQAPGKGLEWVAFIRYDGSNKYYADSVKGRFTISRDNSKNTLYLQMNSLRAEDTAVYYCAKDRGLGDGTYFDYWGQGTTVTVSS
VL: DIQMTQSPSSMSVSVGDRVTITCHSSQDINSNIGWLQQKPGKSFKGLIYHGTNLDDGVPSRFSGSGSGTDYTLTISSLQPEDFATYYCVQYAQFPWTFGGGTKLEIKRTVAAPSVFIFPPQSALTQPASVSGSPGQSITISCSGSSSNIGNNAVNWYQQLPGKAPKLLIYYDDLLPSGVSDRFSGSKSGTSAFLAISGLQSEDEADYYCAAWDDSLNGPVFGGGTKLTVLG
notes: DVD-Ig; dual variable domains only; Outer AB064, inner AB121; also called DVD1215H + DVD1215L
B5: DVD1055 (bispecific antibody)
VH: QVQLQQSGAELVRPGSSVKISCKASGYAFSSYWMNWVKQRPGQGLEWIGQIWPGDGDTNYNGKFKGKATLTADESSSTAYMQLSSLASEDSAVYFCARRETTTVGRYYYAMDYWGQGTSVTVSSASTKGPSVFPLAPQVQLVESGGGLVKPGGSLRLSCAASGFTFSSYGMHWVRQAPGKGLEWVAFIRYDGSNKYYADSVKGRFTISRDNSKNTLYLQMNSLRAEDTAVYYCAKDRGLGDGTYFDYWGQGTTVTVSS
VL: DILLTQTPASLAVSLGQRATISCKASQSVDYDGDSYLNWYQQIPGQPPKLLIYDASNLVSGIPPRFSGSGSGTDFTLNIHPVEKVDAATYHCQQSTEDPWTFGGGTKLEIKRTVAAPSVFIFPPQSALTQPASVSGSPGQSITISCSGSSSNIGNNAVNWYQQLPGKAPKLLIYYDDLLPSGVSDRFSGSKSGTSAFLAISGLQSEDEADYYCAAWDDSLNGPVFGGGTKLTVLG
notes: DVD-Ig; dual variable domains only; Outer AB006, inner AB121; also called DVD1055H + DVD1055L
B6: DVD1052 (bispecific antibody)
VH: QVQLVESGGGLVKPGGSLRLSCAASGFTFSSYGMHWVRQAPGKGLEWVAFIRYDGSNKYYADSVKGRFTISRDNSKNTLYLQMNSLRAEDTAVYYCAKDRGLGDGTYFDYWGQGTTVTVSSASTKGPSVFPLAPQVQLQQPGAELVKPGASVKMSCKASGYTFTSYNMHWVKQTPGRGLEWIGAIYPGNGDTSYNQKFKGKATLTADKSSSTAYMQLSSLTSEDSAVYYCARSTYYGGDWYFNVWGAGTTVTVSA
VL: QSALTQPASVSGSPGQSITISCSGSSSNIGNNAVNWYQQLPGKAPKLLIYYDDLLPSGVSDRFSGSKSGTSAFLAISGLQSEDEADYYCAAWDDSLNGPVFGGGTKLTVLGQPKAAPSVTLFPPQIVLSQSPAILSPSPGEKVTMTCRASSSVSYIHWFQQKPGSSPKPWIYATSNLASGVPVRFSGSGSGTSYSLTISRVEAEDAATYYCQQWTSNPPTFGGGTKLEIKR
notes: DVD-Ig; the entries are the dual variable domains (outer VD - linker - inner VD) without constant domains; Outer AB121, inner AB001; also called NKG2D / CD-20 DVD-Ig; DVD1052H + DVD1052L
B7: AB121 (antibody, V domains shown)
VH: QVQLVESGGGLVKPGGSLRLSCAASGFTFSSYGMHWVRQAPGKGLEWVAFIRYDGSNKYYADSVKGRFTISRDNSKNTLYLQMNSLRAEDTAVYYCAKDRGLGDGTYFDYWGQGTTVTVSS
VL: QSALTQPASVSGSPGQSITISCSGSSSNIGNNAVNWYQQLPGKAPKLLIYYDDLLPSGVSDRFSGSKSGTSAFLAISGLQSEDEADYYCAAWDDSLNGPVFGGGTKLTVLG
notes: also called NKGD (KYK-2.0); anti-NKG2D parent antibody

Legend:
NKG2D [1] = molecular target: T1, NKG2D; assay: flow cytometry (FACSCalibur), activated NK cells, 10 ug/ml, R-PE GMFI on CD56+ live cells
NKG2D [2] = molecular target: T1, NKG2D; assay: flow cytometry (FACSCanto), cells carrying the target (line not given), 2 ug/mL

Row | Binder | FACS Geometric Mean C-terminal (NKG2D [1]) | FACS Geometric Mean N-terminal (NKG2D [1]) | also measured
1 | B1 | 31.7 |  | 
2 | B2 |  | 28.3 | 
3 | B3 |  | 33.8 | 
4 | B4 | 31.7 |  | 
5 | B5 | 21.2 |  | 
6 | B6 |  | 36.4 | 
7 | B7 |  |  | FACS Geometric Mean (NKG2D [2]): 284; FACS Geometric Mean (NKG2D [1]): 31.1

Reference: patent publication US20110044980A1 (AbbVie / Abbott, published 2011)
